Consider 40 sequences from the nanobody polyreactivity screen of Harvey et al. (2022).

The data set in a line: yeast display, Sf9 membrane polyspecificity reagent, FACS + sequencing; frameworks hold sequencing errors. In outline:
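Polyreactivity labels are assigned by the sorting gate from which each nanobody was recovered. The gates were low and high (top ~1%), set on anti-HA fluorescence for expression and streptavidin fluorescence for reagent binding. Before sorting, galactose-induced (36–48 hours) yeast display cells were stained for 1 hour at 4 °C with 10% biotinylated, detergent-solubilized Sf9 membrane reagent.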
On to “QVHLVESGGGLVQAGGSLRLSCAASGSNFVGNAMGWYRQAPGKERELVATISNSGGRTYYADSVKGRFTISRDNAKNTVYLQMNSLKPEDTAVYYCAADHPAFGPGYSFDFWGQGTQVTVSS”, for which the “polyreactivity (PSR sort gate)” value was “low polyreactivity”.

With “QVHLVESGGGLVQAGGSLRLSCAASGSTFAIYAMVWYRQAPGKERELVAAIRQRAGSTYYADSVKGRFTISRDNAKNTVYLQMNSLKPEDTAVHYCATATRPISRGYWGQGTQVTVSS”, the “polyreactivity (PSR sort gate)” value is reported as “low polyreactivity”. As to “QVHLVESGGGLVQAGGSLRLSCAASGSTFFIYTMGWYRQAPGKEREFVAAISWTGGRTYYADSVKGRFTISRDNAKNTVYLQMNSLKPEDTAVYYCAARYKYSSYDYWGEGTQVTVSS”, the “polyreactivity (PSR sort gate)” value is listed as “high polyreactivity”. For “QVHLVESGGGLVQAGGSLRLSCAASGSTFFYYAMGWYRQAPGKERELVAAISNSGGNTFYADSVKGRFTISRDNAKNTVYLQMNSLKPEDTAVYYCAADEIGHFQWRDGDYWGQGTQVTVSS” the value was “low polyreactivity”. For “QVHLVESGGGLVQAGGSLRLSCAASGSTFGRYTMGWYRQAPGKERELVAAITSGGGSTYYADSVKGRFTISRDNAKNTVYLQMNSLKPEDTAVYYCAARSLVQDHAYGYNYWGQGTQVTVSS”, the “polyreactivity (PSR sort gate)” value is recorded as “low polyreactivity”. The same measure for “QVHLVESGGGLVQAGGSLRLSCAASGSTFGSNAMGWYRQAPGKERELVAAIRGIVGSKYYADSVKGRFTISRDNAKNTVYLLMNSLKPEDTAVYYCAADIDFERDRYVYWGQGTQVTVSS”: “low polyreactivity”. For “QVHLVESGGGLVQAGGSLRLSCAASGSTFKRYAMGWYRPAPGKERELVAAIRRGGITNYADSVKGRFTISRDNAKNTVYLQMNSLKPEDTAVYYCAKDGVTYPYSYEYDYWGQGTQVTVSS” the value was “low polyreactivity”; for “QVHLVESGGGLVQAGGSLRLSCAASGSTFLANTMGWYRQAPGKERELVAAITRRGGSTRYADSVKGRFTISRDNAKNTVFLEMNSLKPEDTAVYYCAAPWFRDTRGYSLYDYWGQGTQVTVSS”, “high polyreactivity”.

Regarding “QVHLVESGGGLVQAGGSLRLSCAASGSTFQFNAMGWYRQAPGKERELVATISDGGSTSYADSVKGRFTISRDNAKNTVYLQMNSLKPEDTAVYFCARDRFYDFLRVDYWGQGTQVTVSS”, the “polyreactivity (PSR sort gate)” value is given as “low polyreactivity”. For “QVHLVESGGGLVQAGGSLRLSCAASGSTFRDYDMGWYRQAPGKERELVAAISLSGGLTHYADSVKGRFTISRDNGKNTVYLQMNSLKPEDTAVYYCAARNTGPVQYYYWGQGTQVTVSS” the value was “low polyreactivity”; for “QVHLVESGGGLVQAGGSLRLSCAASGSTFSGYAMGWDRQAPGKDREFVATITSTGSTNYADSVKGRFTSSRDNAKNTVYLQMNSLNPEENAVYYCHSRYWFVERYFLHYASVRYDYWGQGTKVTVSS”, “low polyreactivity”. As to “QVHLVESGGGLVQAGGSLRLSCAASGSTFTSYAMGWYRQAPGKERELVATISKISGSTYYADSVKGRFTISRDNAKNTVYLQMNSLKPEDTAVYYCAAKQGWVQSSILWYRAYGTLNVRRERMDYWGQGTQVTVSS”, the “polyreactivity (PSR sort gate)” value is recorded as “high polyreactivity”. For “QVHLVESGGGLVQAGGSLRLSCAASGSTFYANAMGWYRQAPGKDRELVAVIRWSGGSTYYADSVKGRFTISRDNAKNTDYFQINSLKPEDTAVYYCNADFYRVAYLRRYSHFDYWGQGTQVTVSS”, the “polyreactivity (PSR sort gate)” value is “high polyreactivity”.

Take “QVHLVESGGGLVQAGGSLRLSCAASGSTFYIYAKGWYRQAPGKERELVAAIDWTGSTYYADSVKGRFTISRDNAKNTVYLQMNSLKPEDPAVYDCAAYYDLEDDSYRLNSWGQGTQVTVSS”: the “polyreactivity (PSR sort gate)” value is “high polyreactivity”. For “QVHLVESGGGLVQAGGSLRLSCAASGSTFYPYSMGWYRQAPGKERELVAAISSGGSTSYADSVKGRFTISRDNAKNTVYLQMNSLKPDDTAVYYCAALYRIFSYDYWGQGTQVTVSS”, the “polyreactivity (PSR sort gate)” value is reported as “low polyreactivity”.

On to “QVHLVESGGGLVQAGGSLRLSCAASGSTIRYYAMGWYRQAPGKERELVAAITKSGGSTYYADSVKGRFTISRDNAKNTVYLQMNSLKPEDTAVYYCAAFRRWYYPALSEHDYWGQGTQGTVSS”, for which the “polyreactivity (PSR sort gate)” value was “low polyreactivity”. For “QVHLVESGGGLVQAGGSLRLSCAASGSTIVRYGMGWYRQAPGKERELVAAITSTGDSTYYADSVKGRFTISRDNAKNTVYLQMNSLKPEDTAVYYCATQSSVLSWWYDYWGQGTEVTVSS” the value was “low polyreactivity”; for “QVHLVESGGGLVQAGGSLRLSCAASGSTSAYYVMGWYRQAPGKERELVAAIDFSGDSTYYADSVKGRFTISRDNAKNTVYLQMNSLKPEDTAVYYCAAELFYYSSLVTYEYWGQGTQVTVSS”, “high polyreactivity”. For “QVHLVESGGGLVQAGGSLRLSCAASGTIFGEYAMGWYRQAPGKERELVARISVSGTGTYYADSVKGRFTISRVNAKNTVYLQMNSLKPEDTAVYYSATRLYTIRWGGVSYDYDYWGQGTQVTVSS” the value was “high polyreactivity”. For the sequence “QVHLVESGGGLVQAGGSLRLSCAASGTTFGDYAMGWYRQAPGKERELVAAISLSAGSTYYADSVKGRFTISRDNAKNTVYLQMNSLKPEDTAVYYCAAEYQYHWAYIYYYWGQGTQVTLSS”, the “polyreactivity (PSR sort gate)” value is on record as “high polyreactivity”. As to “QVHLVESGGGLVQAGGSLRLSCAASGVIFSSYAMGWYRQAPGKERELVAAISTGDGSTTYADSVKGRFTISRDNAKNTVYLQMNSLIPEDTAVYYCNVKYRSSYRTDFDYWGQGTQVTVSS”, the “polyreactivity (PSR sort gate)” value is “low polyreactivity”.

For the sequence “QVHLVESGGGLVQAGGSLRLSCAASGYIFRRYAMGWYRQAPGKERELVAAISFSGGSTYYADSVKGRFTISRDNAKNSVYIQMNSLKPDDTAVYYCAGLSLLRYDYWGQGTQVTVSS”, the “polyreactivity (PSR sort gate)” value is reported as “high polyreactivity”. For “QVHLVESGGGLVQAGGSLRLSCAASGYTFGYYTMGWYRQAPGKERELFASIDSGGGTNYADSVKGRFTISRDNAKNTVFLQMNSLKPEETAVYYCAVDSYQTGVYFYYVYWDFDLGYWGQVTQVTVSS” the value was “low polyreactivity”; for “QVHLVESGGGLVQAGGSLRLSCAASGYTFRYYAMGWYRQAPGKERELVAAINWSGGSTYYADSVKGRFTISRDNAKNTVYLQMNSLTPEDTAVYYCAADPDGDLDIDYDYWGQGTQVTVSS”, “low polyreactivity”; for “QVHLVESGGGLVQAGGSLRLSCAASRGIFHYYAMGWYRQAPGNERELVAAISWNTGSTYYADSVKGRFTISRDNAKNTVYLQMNSLKPEDTAVYYCAASYRSPWMRYDYWGQGTQVTVSS”, “high polyreactivity”. For “QVHLVESGGGLVQAGGSLRLSCAATGRIFVPYVMGWYRQAPGKERELVASISDSDTSTYYADSVKGRFTISRDNAKNTVYLQMNSLKPEDNAVYYCNVDYWGQGTQVTVSS”, the “polyreactivity (PSR sort gate)” value was “low polyreactivity”. The same measure for “QVHLVESGGGLVQAGGSLRLSCAATGSIFDQNAMGWYRQAHGKVRELVAAITRGGSTKYADSVKGRFTISRDNAKNTVYLQMNSLKPEDTAVYYCARTARRRYQPYEYWGQGTQVTVSS”: “low polyreactivity”. The same measure for “QVHLVESGGGLVQAGGSLRLSCAATGSTFPNAMGWYRQAPGKERELVAAITYGGGSTYYADSVKGRFTISRDNAKNTVYLQMNSLIPEDTAVYYCNAPSRLSTIFYSGYDYWGQGTQVTVSS”: “low polyreactivity”; for “QVHLVESGGGLVQAGGSLRLSCAATGSTFRYNAMGWYRQAPGKERELVAAISWRGGSTYYADSVKGRFTISRDNAKNTVYLQMNSLKPEDTAVYYCAADRYPSTTYPLSDYNYWGQGTQVTVSS”: “high polyreactivity”; for “QVHLVESGGGLVQAGGSLRLSCAATGYIFDSYAMGWYRPAPGKEREFVAAISGSDGSTYYADSVKGRFTISRDNAKNTVYLQMNSLKPEDTAVYYCAADPYYGEMEYWGQGTQVTVSS”: “low polyreactivity”. Turning to “QVHLVESGGGLVQAGGSLRLSCADSGFIFWSYVMGWNRQAPGKESELVAAIDYSGASTYYADSVKGRFTISRDNAKNTVSLQMNSLKPEDTAVYYCNAVAYYPYGYDYWGQGTQVTVSS”, the “polyreactivity (PSR sort gate)” value is “low polyreactivity”. Take “QVHLVESGGGLVQAGGSLRLSCADSGRTFGTYAMGWYRQAPGKERELVAAISSGGSTYADSVKGRFTISRDNAKNTVYLQMNSLKPVDTAVYYCNADFSARNYHYYPRRFKYYYWGQGTQVTVSS”: the “polyreactivity (PSR sort gate)” value is “high polyreactivity”. For the sequence “QVHLVESGGGLVQAGGSLRLSCDASGFTFYWYAMGWYRQPPGKERELVAAISNRGGSKYYADSVKGRFTISRDNAKNTVYLQMNSLKPEDTAVYYCGAEWYGRMYYWGQGTQVTVSS”, the “polyreactivity (PSR sort gate)” value is recorded as “high polyreactivity”. Consider “QVHLVESGGGLVQAGGSLRLSCDASGSIFTYYAIGWYRPAPGKERELVAAITNGVDSTYYADSVKGRFTISRDNAKNTVYLQINSLKPEDTAVYYCNADTVVEWFSPSREYDYWGQGTQVTVSS”, for which the “polyreactivity (PSR sort gate)” value was “low polyreactivity”. For the sequence “QVHLVESGGGLVQAGGSLRLSFAASGRIFYYNAMGWYRQAHGKERELVAAIRGGCSTNYADSVKGRFTISRDNAKNTVYLQMNSLKPEDTAVYYCNTAVWGPHRYDYWGQGTQVTVSS”, the “polyreactivity (PSR sort gate)” value is on record as “low polyreactivity”. Take “QVHLVESGGGLVQAGGSLRLSGAASGSISGLYAMGCYRQAPGKEREFVARIRWRGDSTYYADSVKGRFTISRDNAKNTVYLQMNSLKPEDTAVYYCAAGLYLFQIWFVNEYDYWGQGTQVTVSS”: the “polyreactivity (PSR sort gate)” value is on record as “high polyreactivity”. For “QVHLVESGGGLVQAGGSLRLSSAASGNIFESYALGWYRQAPGKERELVAAISGSGDSTNYADSVKGRFTISRDNAKNSVYLQMNSLKPEDTAVYYCAARPEVRHQYRRYDYWGQGTQVTVSS” the value was “low polyreactivity”; for “QVHLVESGGGLVQAGGSLRLSSAASGRTFTAYTMGSYRQAPGKEREMVASISSGVTYADSVKGRFTISRDNAKNTVYLQMNSLKTVDTAVYYCAARLWYVQGYVPYVHHRFDYWGQGTQVTVSS”, “low polyreactivity”. On to “QVHLVESGGGLVQAGGSLRLSSAASGSIFIIYAMGWYRQAPGKERELVADITCRGGDTYYADSVKGRFTISRDNAKNTVYLQMNSLKPEDTAVYYCAARAGYPYTVQDVGVSAYDYWGQGTQVTVSS”, for which the “polyreactivity (PSR sort gate)” value was “low polyreactivity”. For the sequence “QVHLVESGGGLVQAGGSLRLTCAASGFIFEYNAMGCYRQAPGKEREFVAAITSSGGSTYYADSVIGRFTISRDNAKNTVYLQMNSLKPEDTAVYYCARVRRSAYYKDYYYWGQGTQVTVSS”, the “polyreactivity (PSR sort gate)” value is listed as “high polyreactivity”.
